{"source": "paper PMC6107515", "key": {"[1]": {"biological_target": "human complement Factor H (human) (UniProt P08603)", "sequence (P08603 19-1231)": "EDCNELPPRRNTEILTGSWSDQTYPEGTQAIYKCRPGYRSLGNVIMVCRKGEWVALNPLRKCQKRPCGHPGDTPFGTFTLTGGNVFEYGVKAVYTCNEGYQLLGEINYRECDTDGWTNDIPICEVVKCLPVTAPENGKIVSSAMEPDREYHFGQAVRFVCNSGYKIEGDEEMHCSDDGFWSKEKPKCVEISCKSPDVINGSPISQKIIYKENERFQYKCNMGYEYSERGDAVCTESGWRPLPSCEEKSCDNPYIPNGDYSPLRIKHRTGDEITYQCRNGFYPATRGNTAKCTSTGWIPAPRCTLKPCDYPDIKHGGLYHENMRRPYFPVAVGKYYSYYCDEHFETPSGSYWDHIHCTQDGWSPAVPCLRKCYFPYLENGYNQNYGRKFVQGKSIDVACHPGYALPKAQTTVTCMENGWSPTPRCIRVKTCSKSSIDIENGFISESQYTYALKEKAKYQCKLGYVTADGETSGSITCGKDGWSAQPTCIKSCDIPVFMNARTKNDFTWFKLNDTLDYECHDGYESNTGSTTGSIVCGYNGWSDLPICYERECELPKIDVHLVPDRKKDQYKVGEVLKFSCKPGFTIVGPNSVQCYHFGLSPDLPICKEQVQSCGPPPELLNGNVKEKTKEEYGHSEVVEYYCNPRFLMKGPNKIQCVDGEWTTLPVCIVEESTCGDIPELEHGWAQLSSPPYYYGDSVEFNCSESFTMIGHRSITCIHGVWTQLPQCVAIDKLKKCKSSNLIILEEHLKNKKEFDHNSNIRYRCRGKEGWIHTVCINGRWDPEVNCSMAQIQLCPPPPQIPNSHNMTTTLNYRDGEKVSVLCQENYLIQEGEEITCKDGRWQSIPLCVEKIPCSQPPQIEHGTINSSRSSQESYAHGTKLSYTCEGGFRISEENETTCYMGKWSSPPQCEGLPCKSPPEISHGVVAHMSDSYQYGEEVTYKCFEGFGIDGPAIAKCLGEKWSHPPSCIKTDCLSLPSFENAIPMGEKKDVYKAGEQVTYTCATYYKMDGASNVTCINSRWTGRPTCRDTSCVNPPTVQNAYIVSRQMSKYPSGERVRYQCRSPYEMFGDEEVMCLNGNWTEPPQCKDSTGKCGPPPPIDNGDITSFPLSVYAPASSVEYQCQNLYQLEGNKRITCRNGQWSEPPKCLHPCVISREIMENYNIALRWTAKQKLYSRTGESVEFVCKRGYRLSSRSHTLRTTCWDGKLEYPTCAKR", "assay": "SPR; Biacore X100; FH coupled to a CM4 chip, recombinant PspCs injected at five increasing concentrations (kinetic titration); PBS-P+ buffer; fitted with a 1:1 binding model"}, "[2]": {"biological_target": "human complement Factor H (human) (UniProt P08603)", "assay": "SPR; Biacore X100; FH coupled to a CM4 chip, recombinant PspCs injected at five increasing concentrations (kinetic titration); PBS-P+ buffer; fitted with a 1:1 binding model", "remark": "listed apart in the source"}}, "note": "Read-outs that look alike come from different tables or passages of the source."}
{"substance": "recombinant PspC (D39) (domain or fragment)", "values": [{"measurement": "Kd", "setting": "[1]", "value": 0.0885, "unit": "nM"}, {"measurement": "Kd", "setting": "[2]", "value": 0.086, "unit": "nM"}, {"measurement": "koff", "setting": "[2]", "value": "4.3e-05", "unit": "s⁻¹"}, {"measurement": "kon", "setting": "[2]", "value": 480000, "unit": "M⁻¹ s⁻¹"}]}
